B1: TPR t1 (parent)
chain: GACCAAUCUGCCCUCAGAGCUCGAGAACAUCUUCGGAUGCAGAGGAGGCAGGCUUCGGUGGCGCGAUAGCGCCAACGUCCUCAACCUCCAAUGCAUCCCACCACAUGAUGAUGCCUGAAGAGCCUUGGUUUUUUG

Variants of: B1
Assay: polymerase ribozyme fitness, log enrichment relative to wild type (log ratio); higher = more active; in vitro selection for triplet polymerase activity
Summary of the method: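 Both subunits of a heterodimeric triplet polymerase ribozyme were given their own mutant library, built by PCR and transcribed. Each library was annealed with a biotinylated primer, the partner subunit and triplets, incubated frozen at −7 °C, and its extended constructs gel-excised, captured on streptavidin beads and amplified by RT-PCR, all in one round done in triplicate. Fitness is the logarithm of genotype enrichment relative to wild-type enrichment, with replicates averaged by inverse-variance weighting. That logarithm is base 2, and Illumina-sequenced genotypes needed ≥10 input reads and ≥1 read per output.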

| Variant | polymerase ribozyme fitness (log ratio) |
| --- | --- |
| GAUCAAUCUGCCCUCAGAGCUCGAGAACAUCUUCGGAUGCAGAGGAGGCAGGCUUCGGUGGCGCGAUAGCGGCAACGUCCUCAACCUCCUAUGCAUCCCACCACAAGAUGAUGCCUGAAGAGCCUUGGUUUUUUG [C3U C72G A90U U106A] | -1.94 |
| GAUCAAUCUGCCCUCAGAGCUCGAGAACAUCUUCGGAUGCAGAGGAGGCAGGCUUCGGUGGCGCGAUAGCGUCAACGUCCUCAACCUCCAAUGCAUCCCACCACAUGAUGAUGCCUGAAGAGCCUUGGUUUUUUG [C3U C72U] | -0.173 |
| GAUCAAUCUGCCCUCAGAGCUCGAGAACAUCUUCGGAUGCAGAGGAGGCAGGCUUCGGUGGCGCGAUAGCGUCAACGUCCUCAACCUCCAAUGCAUCCCACCACACGAUGAUGCCUGAAGAGCCUUGGUUUUUUG [C3U C72U U106C] | -1.21 |
| GAUCAAUCUGCCCUCAGAGCUCGAGAACAUCUUCGGAUGCAGAGGAGGCAGGCUUCGGUGGCGCGAUAGCGCGAACGUCCUCGACCUCCAAUGCAUCCCACCACAUGAUGAUGCCUGAAGAGCCUUGGUUUUUUG [C3U C73G A83G] | -2.1 |
| GAUCAAUCUGCCCUCAGAGCUCGAGAACAUCUUCGGAUGCAGAGGAGGCAGGCUUCGGUGGCGCGAUAGCGCUAACGUCCUCAACCUCCAAUGCAUCCCCCCACAUGAUGAUGCCUGAAGAGCCUUGGUUUUUUG [C3U C73U A100C] | -1.36 |
| GAUCAAUCUGCCCUCAGAGCUCGAGAACAUCUUCGGAUGCAGAGGAGGCAGGCUUCGGUGGCGCGAUAGCGCCAAGGUCCUCAACCUCCAAUGCAUCCCACCACAUGAUGAUGCCUGAAGAGCCUUGGUUUUUUG [C3U C76G] | -1.27 |
| GAUCAAUCUGCCCUCAGAGCUCGAGAACAUCUUCGGAUGCAGAGGAGGCAGGCUUCGGUGGCGCGAUAGCGCCAACGUCCUCAACGUCCAAUGCAUCCCACCACAUGAUCAUGCCUGAAGAGCAUUGGUUUUUUG [C3U C86G G110C C124A] | -5.57 |
| GAUCAAUCUACCCUCAGAGCUCGAGAACAUCUUCGGAUGCAGAGUAGGCAGGCUUCGGUGGCGCGAUAGCGCCCACGUCCACAACCUCCAAUGCAUCCCACCACAUGAUGAUGCCUGAAGAGCCUUGGUUUUUUG [C3U G10A G45U A74C U81A] | -2.98 |
| GAUCAAUCUUCCCUCAGAGCUCGAGUACAUCUUCGGAUGCAGAGGAGGCAGGCUCCGGUGGCGCGAUAUCGCCAACGUCCUCAACCUCCAAUGCAUCCCACCACAUGAUGACGCCUGAAGAGCCUUGGUUUUUUG [C3U G10U A26U U55C G69U U112C] | -3.58 |
| GAUCAAUCUGCCCUCAGAACUCGAGAACAUCUUCGGAUGCAGAGGAGGCAGGGUUCGGUGGCGCGAUAGCGCCAACGUCCUCAACCACCAAUGCAUCCCACCACAUGAUGAUGCCUGAAGAGCAUUGGUUUUUUG [C3U G19A C53G U87A C124A] | -1.53 |
| GAUCAAUCUGCCCUCAGAACUCGAGAACAUCUUCGGAUGCAGAGGAGGCAGGCUUCGGUGGCGCGAUAGUGCCAACGUCCUCAACCUCCAAUGCAUCCCACCACAUGAUGGUGCCUGAAUAGCCUUGGUUUUUUG [C3U G19A C70U A111G G120U] | -3.71 |
| GAUCAAUCUGCCCUCAGAGCUCAAGAACAUCUUCGGAUUCAGAGGAGCCAGGCUUCGGUGGCGCGAUGGCGCCAACGUCCUCAACCUCCAAUGCAUCCUACCACAUGAUGAUGACUGAAGAGCCUUGGUUUUUUG [C3U G23A G39U G48C A68G C99U C114A] | -5.71 |
| GAUCAAUCUGCCCUCAGAGCUCGAGAACAUCUUCGAAUGCAGAGGAGGCCGGCUUCGGUGGCGCGAUAGCGCCAACGUCCUCAACCUCCAAUGCAUCCCACCACAUGAUGAUGCCUGAAUAGCCUUGGUUUUUUG [C3U G36A A50C G120U] | -1.14 |
| GAUCAAUCUGCCCUCAGAGCUCGAGAACAUCUUCGGAUCCAGAGGAGGCAGGCUUCGGUGGCGCGAUAGCGCCAACGUCCUCAACCUCCAAUGCAUCCCACCACAUGAUGAUGCCUUAAGAGCCUUGGUUUUGUG [C3U G39C G117U U133G] | -4.12 |
| GAUCAAUCUGCCCUCAGAGCUCGAGAACAUCUUCGGAUGCAGACGAGGCAGGCUUCGGUAGCGCGAUAGCGCCAACGUCCUCAACCUCCAAUGCAUCCCACCACAUGAUGAUGCCUGAAGAGCCUUGGUUUUUUG [C3U G44C G60A] | -0.897 |
| GAUCAAUCUGCCCUCAGAGCUCGAGAACAUCUUCGGAUGCAGAGAAGUCAGGCUUCGGUAGCGCGAUAGCGCCAACGUCCUCAACCUCCAAUGCAUCCCACCACAUGAUGAUGCCUGAAGAGCCUUGGUUUUUUG [C3U G45A G48U G60A] | -1.92 |
| GAUCAAUCUGCCCUCAGAGCUCGAGAACAUCUUCGGAUGCAGAGCAGGCAGGCUUCGGUGGCGCGAUAGCGCCAACGUCCUCAACCUCCAAUGCAUCCCACCACAUGAUGAUGCCUGAAGAGCCUUGGUUUUUUG [C3U G45C] | -2.34 |
| GAUCAAUCUGCCCUCAGAGCUCGAGAACAUCUUCGGAUGCAGAGUAGGCAGGCUUCGGUGGCGCGAUAGCGGCAACGUCCUCAACCUCCAAUGCAUCCCACCACAUGAUGAUGCCUGAAGAGCCUUGGUUUUUUG [C3U G45U C72G] | -2.05 |
| GAUCAAUCUGCCCUCAGAGCUCGAGAACAUCUUCGGAUGCAGAGUAGGCAGGCUACGGUAGCGCGAUAGCGCCAACGUCCACAACCUCCAAUGCAUCCCACCACAUGAUGAUGCCUGAAGAGCCUUGGUUUUUUG [C3U G45U U55A G60A U81A] | -1.52 |
| GAUCAAUCUGCCCUCAGAGCUCGAGAACAUCUUCGGAUGCAGAGGAAGCAGGCUUCGGUGGCGCGAUAGCGCCAACGUCCUCAACCUCCAAUGCAUCCCACCACAUGAUGAUGCCUGAAGAGCCUUGGUUUUUUG [C3U G47A] | -0.64 |
| GAUCAAUCUGCCCUCAGAGCUCGAGAACAUCUUCGGAUGCAGAGGAAGCAGGCUUCGGUGGUGCGAUAGCGCCAACGUCCUCAACCUCCAAUGCAUCCCACCACUUGAUGAUGCCUGGAGAGCCUUGGUUUUUUG [C3U G47A C62U A105U A118G] | -3.83 |

| Variant | polymerase ribozyme fitness (log ratio) |
| --- | --- |
| GAUCAAUCUGCCCUCAGAGCUCGAGAACAUCUUCGGAUGCAGAGGAUGCCGGCUUCGGUGGCGCGAUAGCGCCAACGUCCUCAACCUCCAAUGCAUCCCACCACAUGAUGAUGCCUGAAGAGCCUUGGUUUUUUG [C3U G47U A50C] | -2.21 |
| GAUCAAUCUGCCCUCAGAGCUCGAGAACAUCUUCGGAUGCAGAGGAGCCAGGCUUCGGUGGCGCGAUAGCGCCAAAGUACUCAACCUCCAAUGCAUCCCAGCACAUGAUGAUGCCUGAAGAGCCUUGGUUUUUUG [C3U G48C C76A C79A C101G] | -4.45 |
| GAUCAAUCUGCCCUCAGAGCUCGAGAACAUCUUCGGAUGCAGAGGAGCCAGGCUUCGGUGGCGCGAUAGCGCCAACGUCCUGAACCUCCAAUGCAUCCCACCACAUGAUGAUGCCUGAAGAGCCUUGGUUUUUUG [C3U G48C C82G] | -1.66 |
| GAUCAAUCUGCCCUCAGAGCUCGAGAACAUCUUCGGAUGCAGAGGAGUCAGGCUUCGGUGCCGCUAUAGCACCAACGUCCUCAACCUCCAAUGCAUCCCACCACAUGAUGAUGCCUGAAGAGCCUUGGUUUUUUG [C3U G48U G61C G65U G71A] | -4.29 |
| GAUCAAUCUGCCCUCAGAGCUCGAGAACAUCUUCGGAUGCAGAGGAGGCAGGCUUCUGUGGCGCGAUAGCGCCAACGUCCUCAACCUCCAAUGCAUCCCACCACAUGAUGAUGCCUGAAGAGCCUUGGUUUUUUG [C3U G57U] | -0.67 |
| GAUCAAUCUGCCCUCAGAGCUCGAGAACAUCUUCGGAUGCAGAGGAGGCAGGCUUCGGUGUCGCGAUAGCGCCAACGUCCUCAAUCUCCAAUGCAUCCCAACACAUGAUGAUGCCUGAAGAGCCUUGGUUUUUUG [C3U G61U C85U C101A] | -2.34 |
| GAUCAAUCUGCCCUCAGAGCUCGAGAACAUCUUCGGAUGCAGAGGAGGCAGGCUUCGGUGGCCCGAUAGCGCCAACGCCCUCAACCUCCAAUGCAUCCCACCACAUGAUGAUGCCUGAAGAGCCUUGGUUUUUUG [C3U G63C U78C] | -3.19 |
| GAUCAAUCUGCCCUCAGAGCUCGAGAACAUCUUCGGAUGCAGAGGAGGCAGGCUUCGGUGGCGCGAUAGCCCCAACAUCCUCAACCUCCAAUGCAUCCCACCACAUGAUGAUGCCUGAAGAGCCUUGGUUUUUUG [C3U G71C G77A] | -5.92 |
| GAUCAAUCUGCCCUCAGAGCUCGAGAACAUCUUCGGAUGCAGAGGAGGCAGGCUUCGGUGGCGCGAUAGCGCCAACAUCCUCAACCUCCAAUGGAUCCCACCACAUGAUGAUGCCUGAAGAGCCUUGGUUUUUUG [C3U G77A C94G] | -1.2 |
| GAUCAAUCUGCCCUCAGAGCUCGAGAACAUCUUCGGAUGCAGAGGAGGCAGGCUUCGGUGGCGCGAUAGCGCCAACUUCCUCAACCUCCAAUGCAUCCCACCACAUGAUGAUGCCUGAACAGCCUUGGUUUUUUG [C3U G77U G120C] | 0.534 |
| GAUCAAUCUGCCCUCAGAGCUCGAGAACAUCUUCGGAUGCAGAGGAGGCAGGCUUCGGUGGCGCGAUAGCGCCAACGUCCUCAACCUCCAAUCCAUCCCACCACAUGAUGAUGCCUGAAGAGCCUUGGUUUUUUG [C3U G93C] | -1.09 |
| GAUCAAUCUGCCCUCAGAGCUCGAGAACAUCUUCGGAUGCAGAGGAGGCAGGCUUCGGUGGCGCGAUAGCGCCAACGUCCUCAACCUCCAAUCCAUCCCACCACAUGAUGAAGCCUGAAGAGGCUUGGUUUUUUG [C3U G93C U112A C123G] | -1.14 |
| GAUCAAUCUGCCCUCAGAGCUCGAGAACAUCUUCGGAUGCAGAGGAGGCAGGCUUCGGUGGCGCGAUAGCGCCAACGUCCUCAACCUCCAAUGCAUCCCACCACAUGAUGAUUCCUGAAGAGCCUUGGUUUUUUG [C3U G113U] | -2.47 |
| GAUCAAUCUGCCCUCAGAGCUCGAGAACAUCUUCGGAUGCAGAGGAGGCAGGCUUCGGUGGCGCGAUAGCGCCAACGUCCUCAACCUCCAAUGCAUCCCACCACAUGAUGAUGCCUAAAGAGCCUUGGUUUUUUG [C3U G117A] | -1.5 |
| GAUCAAUCUGCCCUCAGAGCUCGAGAACAUCUUCGGAUGCAGAGGAGGCAGGCUUCGGUGGCGCGAUAGCGCCAACGUCCUCAACCUCCAAUGCAUCCCACCACAUGAUGAUGCCUUAAGAGCCUUGGUUUUUUG [C3U G117U] | -2.69 |
| GAUCAAACUGCCCUCAGAGCUCGAGAACAUCUUCGGAUGCAGAGGAGGCAGGCCUCGGUGGCGCGAUAGCGCCAACGUCCUCAACCUCCAAUGCGUCCCACCACAUGAUGAAGCCUGAAGAGCCUUGGUUUUUUG [C3U U7A U54C A95G U112A] | 0.973 |
| GAUCAACCUGCCCUCAGCGCUCGAGAACAUCUUCGGAUGCAGAGGAGGCAGACUUCGGUGGCGCGAUAGCGUCAACGUCCUCAACCUCCAAUGAAUCCCACCACAUGAUGAUGCCUGAAGAGCCUUGGUUUUUUG [C3U U7C A18C G52A C72U C94A] | -4.4 |
| GAUCAACCUGCCCUCAGAGCUCGAGAACAUCUUCGGAUGCAGAGGAGUCAGGCUUCGGUGGCGCGAUAGUGCCAACGUCCUCAACCUCCAAUGCAUCCCACCACAUGAUGAUGCCUGAAGAGCCUUGGUUUUUUG [C3U U7C G48U C70U] | -1.98 |
| GAUCAAUCGGCCCUCAGAGCUCGAGAACAUCUUCGGAUGCAGAGAAGGCAUGGUUCGGUGGCGCGAUAGCGCCAACGUCCUCAACCUCCAAUGCAUCCCACCACAUGAUGAUGCCUGAAGAGACUUGGUUUUUUG [C3U U9G G45A G51U C53G C123A] | -5.27 |
| GAUCAAUCUGCCCACAGAGCUCGAGAACAUCUUCGGAUGCAGAGGAGGCAGGCUUCGGUGGCGCGAUAGCGCCAACGUCCUCAACCUCCAAUGCAUCCCACCACAUGAUGAUGCCUGAAGAGCCUUGGUUUUUUG [C3U U14A] | -2.47 |
| GAUCAAUCUGCCCUCAGAGCUCGAGAACAUCUGCGGAUGCAGAGGAGGCAGGUAUCGGUGGCGCGAUAGCGCUAACGUCCUCAACCACCAAUGCAUCCCACCACAUGAUGAUGCCUGAAGAGCAUUGGUUUUUUG [C3U U33G C53U U54A C73U U87A C124A] | -4.16 |
